This series in a line: soluble on expression in E. coli; label from the status in PepcDB or PDB records.
For the sequence “MSLNSVPNDLQTWKRFVKDGVLDEARLRKRIAESWHRCKKAEVNPYLEKGPKVLQQTELDQQSKKHSFFLTTAKPYLEKLLPAIKEMEMMALLIDSDGVVLALDGHPRALYEAKRINFVEGACWTETAVGTNAIGTALHISEPVAIQGSEHYSIASHLWNCSAAPIHHEDGSLAGVIDISCPAAGAHPHMLGIATAIAYAAERELAAKSREKELELISRFGERAASSVPMVLCNTKQHIISASMPIRTSMPDWQGRHLYELKERGYSIENAVTIGDGGTCFYLSEQKKKKAFRFNGVIGQSGRSQAMLMHLERAAATDASVCLSGETGTGKEVAARALHENSERRHGPFVAVNCGAIPSDLIESELFGYAEGAFTGAKRNGYKGAFQKANQGTLFLDEIGEISHSMQVALLRVLQERKITPIGGTKEIPVDIRVIAATHCDLRELAENGKIREDLFYRLHVYPIELPPLRDRTEDIPDLFEYYKQKNHWPGDLPSDFCNVLKQWKWPGNIRELFNVFERLSIRFPDGRLRDESLPALLEAAGLPASSAEKKPAAAGVLTFREQIQKDMMIKALESAKGNVSQAAKISGIPRSTFYKRLKKFNLSAESEGGSHHHHHH”, the “soluble on expression in E. coli” value is on record as “soluble”.

For the sequence “MSEKQINNFSLISRLFGNLFYRFPTDKVLADAFVWLQQEGLSQVWALDTDKESELALNSLQVKIDLNLLNEEYQKLFATNGKVMTAISAYGIDVEEFVNFRLVRNMPEVESADHFALLLLTASWLEDNSDSLVAQQEFFETFLLPCAAKFLTQVENQATLPFYRALALLTREILATMADELEEE”, the “soluble on expression in E. coli” value was “soluble”.

As to “MNSRIPEDLIERAHRGKTTKEDALLLLEVPPFELFRFADELRDLAAGDTVTYVVNRNINFTSRCTGSCGFCAFRTDDGKVLSIEEIMEKVREAEKANATEVCIQGGLLPDVGLDFYQGIVEAIKAEFPEMHVHSFSPMEVYHASRISEIPVKESLRRLKRSGLDTMPGTAAEILSDRVRKIICPAKLNTAEWIEVVTQAHAAGIPTTATMMYGHVETPEERINHMLTIREIQKETGGITEFVPLPFMPYNNPVGEKMIKEGRYATPGLEDLKVYAVSRILFHGHVDNIQASWVKLGKKFAQFSLHCGVNDLGGTLMEESISRSAGACHGEMITVDELEWMIHGAGRIPKERTTLYREAHELASRNSRKIAGCGAFE”, the “soluble on expression in E. coli” value is “not soluble”.

On to “GMQGKKFISPGAWFSMNYPSDWNEFEDGEGSFLFYNPDVWTGNFRISAFKGNASYGKDAIRQELKENDSASLVKIGTWDCAYSKEMFQEEGTYYTSHLWITGTGNIAFECSFTVPKGGSAKEAEEVIATLEARKEGEKYPAELIPVRLSEIYQINEGYEWVVSTVKQELKKDFQGVEEDLEKIQQVIDSGKISPKKKDEWLAIGITVCAILTNEVEGMEWKTLIDGNREVPVLEYQGRTIDPMKIAWSKVKAGQPCNIAEAYQSAIDHH”, for which the “soluble on expression in E. coli” value is recorded as “soluble”.

For “GMSLIPEIDAFLGCPTPDAWIEAALADQETLLIDHKNCEFKAASTALSLIAKYNTHLDLINMMSRLAREELVHHEQVLRLMKRRGVPLRPVSAGRYASGLRRLVRAHEPVKLVDTLVVGAFIEARSCERFAALVPHLDEELGRFYHGLLKSEARHYQGYLKLAHNYGDEADIARCVELVRAAEMELIQSPDQELRFHSGIPQALAA”, the “soluble on expression in E. coli” value is on record as “soluble”.

For the sequence “MSLNVVNSIFSKLSIAPMIDWTNSPFRTLMRLLAPNALLYTEMQTTGAVQNNPDRALYFNSVEHPLAIQLGGADKSALVKCAIIAEQKGFNEINLNLGCPSDKVQAGRFGACLMKEPEHVADCIRAIKQVVGIPVTAKTRIGIDNQDSYEFFRSFSLHLVEAGCDKLIIHARKAWLNGLNPKQNRTIPPVNYDYVYELKKEIPHIFITINGNILTVEEINNHLKHVDGVMLGRLACDNPYQIAEIHQALYPEFIKIKRSQLLMNYLDYWFDQSRANEGHHHHHH”, the “soluble on expression in E. coli” value was “not soluble”.

As to “SEEDNRAPQLWRKTLTAPAPFADETNCQCQAPHEKLTIAQARLGTPADRPVRVYADGIFDLFHSGHARALMQAKTLFPNSYLLVGVCSDDLTHKFKGFTVMNEAERYEALRHCRYVDEVIRDAPWTLTPEFLEKHKIDFVAHDDIPYSSAGSDDVYKHIKEAGMFVPTQRTEGISTSDIITRIVRDYDVYARRNLQRGYTAKELNVSFINEKRYRFQNQVDKMKEKVKNVEERSKEFVNRVEEKSHDLIQKWEEKSREFIGNFLELFGPDGAWKQMFQERSSRMLQALSPKQSPVSSPTRSRSPSRSPSPTFSWLPLKTSPPSSPKAASASISSMSEGDEDEK”, the “soluble on expression in E. coli” value is “soluble”.

On to “MLNVEPSFAEELRSSGVSLSATYLGSVPVVESINVMVSEMRVQVVSLVFLMA”, for which the “soluble on expression in E. coli” value is “not soluble”.

In the case of “MNGYQITFFTQQDRHHAGKPLADWLMHLAAEMGLRGATLIPGSEGMGHDKRFHSVHFFELSDQLLEVVMVVSEEEADQLFARLRAEGVRLFYVKVAAEFGIMD”, the “soluble on expression in E. coli” value was “not soluble”.

As to “MIRIAYVSTYPPRRCGLATFTEHLRQSIDGVRGPSDGDRVIVLYNESDGDDAYRNDPAYWPLPAQNRAAYAEMAKRVNESDIDVVLLQHEFGIFGGEAGEYILDFIAALNKPLVTTFHTVFADPPLPYRPIQGKIAAASDAIIVMNRQAIPYLVKAFGLPEEKIVYIPHGAPGPSSENRDSLRRRLGFSGRKVMLTFGLLSRGKGIESVLAALPGVVRKVPEALYVIAGQTHPEVKKREGEAYREELKSLIHRLGLEHHVHMEDRYFSEEELIDYLTACDLYVTPYPGMQQITSGTLAYAVGVGRPVVSTPYEHARDLLRGCEELLLPYGDTTAWEERLGQLLADEAALKRWEEKVRQIGANTHWPRVGEQHVALFARMCAAKRGEVKTIGTVSH”, the “soluble on expression in E. coli” value was “not soluble”.

Take “MYKNNFENYMNLDIYKDIEEIRAALEHLGAKKILLQLPDGLKPEVYHYFNYLSANYNVVISSSPVYGACDIGPSSIYDKVDAIVQIGHSPMPNVKYPKPTIFVEHHYNARISNIDTSLLEGKYDRIGLLFSVQYKEVADEVRKIFENKGFTVIIGKKDGRMAYDGQVLGCNFSSVHSISYDVDAYVLVSTGQFHGIGAQLSTEREVFVLDLNDYKLHSMKDEADKFIRKRYAQIFRAKEARKICIISDTRIGQRRERLARIILRQVQQMGLEGILAVTDNISNQDLENMRCDAVVYTGCPRVPIDDQQKFTMPLLTPAEFEMGFVKNSNRYVLDEIVSVDDPADKLEHHHHHH”: the “soluble on expression in E. coli” value was “not soluble”.

Regarding “MVGKRNLPVISRNFDLSPGVLRFSASRLRLKKGEKKPKFTKDTSAKLPKLQRNGTKFALGHSKTVTLRKTLTPGTVLIVLAGRHKGKRVVFLKQLPQSGLLLVTGPHKINGFPLRRIGQAFVIATSLKVNVSGVKIPEHINDEYFKRKSTAQKTGKNIFASGKTEYTVSEQRKKDIKTVDAPILAAIKKHPEHKFLFGYLGTRFSLGKNQYPHKMQF”, the “soluble on expression in E. coli” value is “not soluble”.

As to “MDATMVFKRLLGSLGVGAPTVDTVLDPAPVLPGGTLTGQVHLEGGQTDFDIEHITLELVARVEAEHEDGEDEGVVVFDRFTVGGGFRLGAEEPRSVPFRVTLPWETPITELYGQPLGIVLGVRTELAVADAKDKGDLDQLTVTALPVQEAVLEAFGQLGFGFGSADLEYGHIGGTGQQLPFYQEIELVPAPQYADRLNEIELTFLAGPGGLEVVLEADKRGGLLSSGHDAVTRFSVGHHDARDWAAEVEGWVRQLVEHHTTYGAPGTHGHSTPYAGHGHHDPHGNGGRHHDDHRSGPGVGTAVAAGAAGLAVGVVGGMVAAEVVDEVGDFFEGDDEEEDEG”, the “soluble on expression in E. coli” value is reported as “not soluble”.

For “MGSDKIHHHHHHMTATVRQMWRHPIKGIGAEPLTEVRLETGGPMPLDRAWAVLTGTSEDTGAWQPCRNFARGCFGPELMAITAETQGNQITLRHPKQGEITLDPATDGARLLEWLLPLYPAERPQPHTLIKAPAGGMADADFSAVAILSLTSLKALGDALGQELDPRRFRGNLWIDGTAPFEEFDWVGRELKIGTARLEVVDRITRCRATETNPETGARDANTLKALREHWGHTDFGIRARVLSDGDIALSDSLEVL”, the “soluble on expression in E. coli” value is recorded as “not soluble”.

As for “MRTLRIAQYSVLTVGFAIYMYRLIEEIPIDIRNLNSDSLEGIINSDELCDVTVSNRNRGLLVRNDSLDLDILKAKFTTFFSKR”, the “soluble on expression in E. coli” value is “not soluble”.

As for “MAHHHHHHMHLLHDFKNIYCLLPSDYKNFLQKIRTLPCSVNKNMQGEKEIYILKKYMKMLNYEFITFIHGPYVLHICDPFYKIYLEWENGWKLYPLYQQNAERHFRENKITHLRKEGFSEILICHDAFANCPSDEEKMNYLSSVLQRTKFSKCSSIICGPAAIAPPPVVSPDIYL”, the “soluble on expression in E. coli” value is reported as “not soluble”.

Regarding “MYKRYVAQIIFALTILISAPSWAETEETGPKLAYFTLEPDLTTNFYTKGKKLGYVQVRIDIMVMSQQDLAIVEHHQPLIRDAVIELLGKQTEDTIKSLSGREDLRKTLVKELNETLLPETGKTVIADLLFTKYLYQ”, the “soluble on expression in E. coli” value was “not soluble”.

Take “MGSDKIHHHHHHMSGSKIKIALFNDTDFRVNIGCRLTSQGLKQQILDAFPAAEITSIGFNFAAFRKEFPKSTSAGGYELSDIETRLSTAYGEGAVDHIRAADFVILQPEGSLDHRTTAEGLATFFTPILTARKLGKPFAVLNGTIPIYEGERSDYLKGLFRELGHVAARDEISAEYYGIEFLADAAFLRISPAPVADRDGCLITTGARNNAEEDVEILKAALKICEAWKLRPVVLTHAVERFSPYEAEIIGRGGIFAETASIEHAAETISKCRLHIGGRYHMAIFSLLCNVPSLLFDVKTHKNQWLERYSPLITLVHPHTDLDAAAAAVLSGGVSQGHPGSTAAEKYVHFLKRAMAEQPL”: the “soluble on expression in E. coli” value is reported as “not soluble”.

Consider “MSLNNNDLVAKLWKLCDNLRDGGVSYQNYVNELASLLFLKMCKETGQEAEYLPEGYRWDDLKSRIGQEQLQFYRKMLVHLGEDDKKLVQAVFHNVSTTITEPKQITALVSNMDSLDWYNGAHGKSRDDFGDMYEGLLQKNANETKSGAGQYFTPRPLIKTIIHLLKPQPREVVQDPAAGTAGFLIEADRYVKSQTNDLDDLDGDTQDFQIHRAFIGLELVPGTRRLALMNCLLHDIEGNLDHGGAIRLGNTLGSDGENLPKAHIVATNPPFGSAAGTNITRTFVHPTSNKQLCFMQHIIETLHPGGRAAVVVPDNVLFEGGKGTDIRRDLMDKCHLHTILRLPTGIFYAQGVKTNVLFFTKGTVANPNQDKNCTDDVWVYDLRTNMPSFGKRTPFTDEHLQPFERVYGEDPHGLSPRTEGEWSFNAEETEVADSEENKNTDQHLATSRWRKFSREWIRTAKSDSLDISWLKDKDSIDADSLPEPDVLAAEAMGELVQALSELDALMRELGASDEADLQRQLLEEAFGGVKEEGGSHHHHHH”, for which the “soluble on expression in E. coli” value was “soluble”.

Take “MGSDKIHHHHHHMGKLVLAAKVSHVPSLMLSETSDSPLRQARAGAVAALRELGRRAKEREVTTFVVFDTHWLSNFGYHINANAQHRGSFTSHEAPHMIQDLRYDLPGDPALAQAIAAEAQSHGLKVLAHQVPTLGLEYGTIVPMHYLNSDGWAKIVSIASPLFTSIEESRALGEATRRAIDASDERVAILASGSLSHRLWPNKDLGPDAWTTIASEFNRQVDLRVLQLWQERRYREFTAMLPDYAVKCNGEGGMADTVMLFAALGWDDYTGEAEPLCDYFPSSGSGQVNVEFHVS”: the “soluble on expression in E. coli” value is given as “not soluble”.

For the sequence “MAHHHHHHMVNEYHEAPRPAITLPRPGTKFRASAVEPILKKVCQTLVGDRAYAHEDVQPLIKEICSEIQQRVVRLGYERYKFVTHATVTEAVNQGIRIASRGLWDPVTDGYASYTFSTETMHVNVVLYALYWE”, the “soluble on expression in E. coli” value is “not soluble”.

As to “MKNLENYFDKAELQHFFECLTDDDNTPQASVFFRLAAFTGMRKSEMLCLEWSDIDFSNHTIRVNKTQSRGDGARLLVQAPKTARSNRTVYLDPTTIKILQHWQVDQKKWLLRFGFNINQGNHYVFANENNEMFQPSKPRKWLEHTLTKYDLKHVTVHAFRHTYATLAFEAHASIKSVQDQLGHSSYRTTLDIYTAVTAKQKNEATEKLANYLNFLEHHHHHH”, the “soluble on expression in E. coli” value is recorded as “not soluble”.

These data come from the DeepSol protein solubility set.
